Target: CD19 CAR (4G7-CAR) encoded by Construct 1, expressed on transfected HEK293 cells
Experiment: flow cytometry, HEK293 cells transfected with Construct 1, biotinylated CD19 then streptavidin-PE; unstained 17.4, streptavidin-PE only 18.5

CD19 CAR (4G7-CAR) encoded by Construct 1, expressed on transfected HEK293 cells, sequence (chain, as listed by the source limits assumed): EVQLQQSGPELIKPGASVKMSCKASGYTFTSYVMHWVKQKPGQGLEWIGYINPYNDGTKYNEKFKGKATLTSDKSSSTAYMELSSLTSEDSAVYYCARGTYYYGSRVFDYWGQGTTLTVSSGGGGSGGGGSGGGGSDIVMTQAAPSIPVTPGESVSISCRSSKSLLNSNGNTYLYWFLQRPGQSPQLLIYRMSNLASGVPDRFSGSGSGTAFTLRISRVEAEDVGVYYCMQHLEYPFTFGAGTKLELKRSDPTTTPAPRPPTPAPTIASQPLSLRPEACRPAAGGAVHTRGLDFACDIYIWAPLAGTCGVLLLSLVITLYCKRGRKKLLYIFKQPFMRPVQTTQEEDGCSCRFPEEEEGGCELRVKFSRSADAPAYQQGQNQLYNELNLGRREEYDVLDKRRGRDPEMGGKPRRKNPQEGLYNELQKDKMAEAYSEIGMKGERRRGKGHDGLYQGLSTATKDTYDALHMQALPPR

PE (CD19) flow cytometry value: 33.3
Substance: biotinylated CD19 (Acro CD9-H8259, Acro Biosystems) (from UniProt P15391 20-291)
